In publication doi:10.1101/476960:
Where two headings read alike, the source gives them in different places.

Columns and labels:
[1] = target: T1, Ago2 (Homo sapiens, UniProt Q9UKV8 1-859); test: filter binding
[2] = target: T1, Ago2; test: filter binding; remark: listed apart in the source
[3] = target: Ago2 D669A (Homo sapiens, UniProt Q9UKV8 1-859, D669A); test: X-ray crystallography
[4] = target: T1, Ago2; test: filter binding; remark: listed apart in the source

T1 sequence (Q9UKV8 whole entry): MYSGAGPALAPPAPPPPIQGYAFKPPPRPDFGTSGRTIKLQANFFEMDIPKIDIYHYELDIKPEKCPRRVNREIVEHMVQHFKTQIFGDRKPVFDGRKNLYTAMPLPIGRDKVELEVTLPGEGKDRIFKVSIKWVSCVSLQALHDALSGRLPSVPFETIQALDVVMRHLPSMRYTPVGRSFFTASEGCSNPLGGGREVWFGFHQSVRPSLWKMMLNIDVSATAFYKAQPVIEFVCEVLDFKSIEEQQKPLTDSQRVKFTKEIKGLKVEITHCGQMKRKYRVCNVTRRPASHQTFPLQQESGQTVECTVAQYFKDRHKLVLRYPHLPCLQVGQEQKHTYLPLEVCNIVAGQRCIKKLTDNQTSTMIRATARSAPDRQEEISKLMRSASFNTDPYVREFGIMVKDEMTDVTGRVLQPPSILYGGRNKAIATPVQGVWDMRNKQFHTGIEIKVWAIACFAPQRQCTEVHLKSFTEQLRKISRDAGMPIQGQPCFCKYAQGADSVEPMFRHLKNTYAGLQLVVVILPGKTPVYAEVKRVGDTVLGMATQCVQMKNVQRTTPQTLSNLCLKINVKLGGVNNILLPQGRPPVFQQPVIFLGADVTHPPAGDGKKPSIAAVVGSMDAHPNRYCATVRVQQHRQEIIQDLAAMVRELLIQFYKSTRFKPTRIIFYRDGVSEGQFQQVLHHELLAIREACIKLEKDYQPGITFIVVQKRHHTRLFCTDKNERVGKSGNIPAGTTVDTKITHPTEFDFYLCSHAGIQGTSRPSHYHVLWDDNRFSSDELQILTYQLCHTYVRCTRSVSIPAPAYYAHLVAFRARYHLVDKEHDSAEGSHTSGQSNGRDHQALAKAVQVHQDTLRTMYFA
Sequence of Ago2 D669A (Q9UKV8 whole entry D669A): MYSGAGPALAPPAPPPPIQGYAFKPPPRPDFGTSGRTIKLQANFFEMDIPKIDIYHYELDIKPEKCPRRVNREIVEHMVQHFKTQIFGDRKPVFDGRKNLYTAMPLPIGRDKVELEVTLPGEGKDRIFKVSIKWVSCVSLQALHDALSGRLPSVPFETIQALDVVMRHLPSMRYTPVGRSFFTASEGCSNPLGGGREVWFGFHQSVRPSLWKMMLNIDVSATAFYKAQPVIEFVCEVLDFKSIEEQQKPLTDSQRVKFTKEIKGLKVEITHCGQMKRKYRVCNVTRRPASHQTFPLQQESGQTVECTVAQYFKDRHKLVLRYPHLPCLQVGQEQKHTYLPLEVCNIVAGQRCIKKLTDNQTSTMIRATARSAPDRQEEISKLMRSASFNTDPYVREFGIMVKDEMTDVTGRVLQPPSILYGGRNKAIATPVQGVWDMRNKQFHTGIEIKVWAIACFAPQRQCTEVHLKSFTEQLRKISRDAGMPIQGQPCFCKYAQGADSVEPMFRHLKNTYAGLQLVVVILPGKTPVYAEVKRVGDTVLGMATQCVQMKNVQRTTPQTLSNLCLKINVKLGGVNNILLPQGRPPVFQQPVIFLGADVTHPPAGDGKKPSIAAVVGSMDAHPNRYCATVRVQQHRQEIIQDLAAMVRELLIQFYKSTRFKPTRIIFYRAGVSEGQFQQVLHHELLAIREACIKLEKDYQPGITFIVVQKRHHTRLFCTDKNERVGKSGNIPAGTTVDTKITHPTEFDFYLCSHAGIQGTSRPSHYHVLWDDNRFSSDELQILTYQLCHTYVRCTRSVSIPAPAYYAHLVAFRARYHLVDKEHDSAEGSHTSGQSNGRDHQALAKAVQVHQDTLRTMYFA

Binder	binding signal [4]	also measured
weak-sup miR-122 / 4 nt bridge (mixed, 5' phosphate on guide) RNA 1: UGGAGUGUGACACUAUCGAAAG RNA 2: AUAGAAAAACACUCCUAA	–	binding signal [1]: > 10 fold affinity vs seed-only N2
EV2 guide / g13-g14 target (mixed, 5' phosphate on guide) RNA 1: UGGAGUGUGACACCGGCGAAAG RNA 2: GGCAAAACACUCCUAA	–	binding signal [2]: > 3.5 fold affinity vs seed-only N13
miR-122 21mer / 2-16 perfect target (mixed, 5' phosphate on guide) RNA 1: UGGAGUGUGACAAUGGUGUUU RNA 2: CCAUUGUCACACUCCAAA	–	binding result [3]: binds
weak-sup miR-122 / 10 nt bridge (mixed, 5' phosphate on guide) RNA 1: UGGAGUGUGACACUAUCGAAAG RNA 2: AUAGAAAAAAAAAAACACUCCUAA	–	binding signal [1]: 1.9 fold affinity vs seed-only N2
strong-sup miR-122 / 1 nt bridge (mixed, 5' phosphate on guide) RNA 1: UGGAGUGUGACAGCGGCGAAAG RNA 2: CCGCAACACUCCUAA	> 10 fold affinity vs seed-only N7	–
strong-sup miR-122 / 2 nt bridge (mixed, 5' phosphate on guide) RNA 1: UGGAGUGUGACAGCGGCGAAAG RNA 2: CCGCAAACACUCCUAA	> 20 fold affinity vs seed-only N7	–
strong-sup miR-122 / 15 nt bridge (mixed, 5' phosphate on guide) RNA 1: UGGAGUGUGACAGCGGCGAAAG RNA 2: CCGCAAAAAAAAAAAAAAAACACUCCUAA	> 10 fold affinity vs seed-only N7	–
strong-sup miR-122 / 4 nt bridge (mixed, 5' phosphate on guide) RNA 1: UGGAGUGUGACAGCGGCGAAAG RNA 2: CCGCAAAAACACUCCUAA	> 20 fold affinity vs seed-only N7	–
